Data published in patent publication US20260242735A1.

Assays:
human CD33 K283A (human) = human CD33 K283A (human) (UniProt P20138); assay: flow cytometry, HEK293-T, alanine scan
human CD33 H317A (human) = human CD33 H317A (human) (UniProt P20138); assay: flow cytometry, HEK293-T, alanine scan
human CD33 T303A (human) = human CD33 T303A (human) (UniProt P20138); assay: flow cytometry, HEK293-T, alanine scan
human CD33 S323A (human) = human CD33 S323A (human) (UniProt P20138); assay: flow cytometry, HEK293-T, alanine scan
human CD33 I281A (human) = human CD33 I281A (human) (UniProt P20138); assay: flow cytometry, HEK293-T, alanine scan
human CD33 E321A (human) = human CD33 E321A (human) (UniProt P20138); assay: flow cytometry, HEK293-T, alanine scan
human CD33 C276A (human) = human CD33 C276A (human) (UniProt P20138); assay: flow cytometry, HEK293-T, alanine scan
human CD33 F345A (human) = human CD33 F345A (human) (UniProt P20138); assay: flow cytometry, HEK293-T, alanine scan
human CD33 P308A (human) = human CD33 P308A (human) (UniProt P20138); assay: flow cytometry, HEK293-T, alanine scan
human CD33 Y340A (human) = human CD33 Y340A (human) (UniProt P20138); assay: flow cytometry, HEK293-T, alanine scan
human CD33 T331A (human) = human CD33 T331A (human) (UniProt P20138); assay: flow cytometry, HEK293-T, alanine scan
human CD33 D335A (human) = human CD33 D335A (human) (UniProt P20138); assay: flow cytometry, HEK293-T, alanine scan
human CD33 H300A (human) = human CD33 H300A (human) (UniProt P20138); assay: flow cytometry, HEK293-T, alanine scan
human CD33 K312A (human) = human CD33 K312A (human) (UniProt P20138); assay: flow cytometry, HEK293-T, alanine scan
human CD33 S305A (human) = human CD33 S305A (human) (UniProt P20138); assay: flow cytometry, HEK293-T, alanine scan
human CD33 C274A (human) = human CD33 C274A (human) (UniProt P20138); assay: flow cytometry, HEK293-T, alanine scan
human CD33 E336A (human) = human CD33 E336A (human) (UniProt P20138); assay: flow cytometry, HEK293-T, alanine scan
human CD33 S342A (human) = human CD33 S342A (human) (UniProt P20138); assay: flow cytometry, HEK293-T, alanine scan
human CD33 D298A (human) = human CD33 D298A (human) (UniProt P20138); assay: flow cytometry, HEK293-T, alanine scan
human CD33 T299A (human) = human CD33 T299A (human) (UniProt P20138); assay: flow cytometry, HEK293-T, alanine scan
human CD33 M334A (human) = human CD33 M334A (human) (UniProt P20138); assay: flow cytometry, HEK293-T, alanine scan
human CD33 H339A (human) = human CD33 H339A (human) (UniProt P20138); assay: flow cytometry, HEK293-T, alanine scan
human CD33 S324A (human) = human CD33 S324A (human) (UniProt P20138); assay: flow cytometry, HEK293-T, alanine scan
human CD33 E337A (human) = human CD33 E337A (human) (UniProt P20138); assay: flow cytometry, HEK293-T, alanine scan
human CD33 T322A (human) = human CD33 T322A (human) (UniProt P20138); assay: flow cytometry, HEK293-T, alanine scan
human CD33 H310A (human) = human CD33 H310A (human) (UniProt P20138); assay: flow cytometry, HEK293-T, alanine scan
human CD33 A306S (human) = human CD33 A306S (human) (UniProt P20138); assay: flow cytometry, HEK293-T, alanine scan
human CD33 G318A (human) = human CD33 G318A (human) (UniProt P20138); assay: flow cytometry, HEK293-T, alanine scan
human CD33 K315A (human) = human CD33 K315A (human) (UniProt P20138); assay: flow cytometry, HEK293-T, alanine scan
human CD33 S164A (human) = human CD33 S164A (human) (UniProt P20138); assay: alanine scan, flow cytometry, HEK293-T
human CD33 D70A (human) = human CD33 D70A (human) (UniProt P20138); assay: alanine scan, flow cytometry, HEK293-T
human CD33 G156A (human) = human CD33 G156A (human) (UniProt P20138); assay: alanine scan, flow cytometry, HEK293-T
human CD33 P184A (human) = human CD33 P184A (human) (UniProt P20138); assay: alanine scan, flow cytometry, HEK293-T
human CD33 T173A (human) = human CD33 T173A (human) (UniProt P20138); assay: alanine scan, flow cytometry, HEK293-T
human CD33 P72A (human) = human CD33 P72A (human) (UniProt P20138); assay: alanine scan, flow cytometry, HEK293-T
human CD33 T142A (human) = human CD33 T142A (human) (UniProt P20138); assay: alanine scan, flow cytometry, HEK293-T
human CD33 S158A (human) = human CD33 S158A (human) (UniProt P20138); assay: alanine scan, flow cytometry, HEK293-T
human CD33 S178A (human) = human CD33 S178A (human) (UniProt P20138); assay: alanine scan, flow cytometry, HEK293-T
human CD33 A168S (human) = human CD33 A168S (human) (UniProt P20138); assay: alanine scan, flow cytometry, HEK293-T
human CD33 Y59A (human) = human CD33 Y59A (human) (UniProt P20138); assay: alanine scan, flow cytometry, HEK293-T
human CD33 R110A (human) = human CD33 R110A (human) (UniProt P20138); assay: alanine scan, flow cytometry, HEK293-T
human CD33 E84A (human) = human CD33 E84A (human) (UniProt P20138); assay: alanine scan, flow cytometry, HEK293-T
human CD33 V82A (human) = human CD33 V82A (human) (UniProt P20138); assay: alanine scan, flow cytometry, HEK293-T
human CD33 S97A (human) = human CD33 S97A (human) (UniProt P20138); assay: alanine scan, flow cytometry, HEK293-T
human CD33 D95A (human) = human CD33 D95A (human) (UniProt P20138); assay: alanine scan, flow cytometry, HEK293-T

Sequence of human CD33 T142A (human) (P20138 18-364 T142A limits assumed): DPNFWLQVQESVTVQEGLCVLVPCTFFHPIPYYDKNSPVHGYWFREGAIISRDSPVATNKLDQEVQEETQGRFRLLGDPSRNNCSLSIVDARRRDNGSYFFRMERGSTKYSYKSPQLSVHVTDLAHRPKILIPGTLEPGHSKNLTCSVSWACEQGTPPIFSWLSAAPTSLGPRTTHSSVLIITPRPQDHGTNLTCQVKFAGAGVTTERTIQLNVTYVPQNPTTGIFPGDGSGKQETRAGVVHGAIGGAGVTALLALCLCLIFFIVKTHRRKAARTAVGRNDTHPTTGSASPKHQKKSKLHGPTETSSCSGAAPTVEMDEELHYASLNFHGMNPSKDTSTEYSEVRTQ
Sequence of human CD33 T322A (human) (P20138 18-364 T322A limits assumed): as the sequence (P20138 18-364 T142A limits assumed) above, with A125T, T305A counted along it
Sequence of human CD33 H310A (human) (P20138 18-364 H310A limits assumed): as the sequence (P20138 18-364 T142A limits assumed) above, with A125T, H293A counted along it
Sequence of human CD33 D335A (human) (P20138 18-364 D335A limits assumed): as the sequence (P20138 18-364 T142A limits assumed) above, with A125T, D318A counted along it
Sequence of human CD33 T299A (human) (P20138 18-364 T299A limits assumed): as the sequence (P20138 18-364 T142A limits assumed) above, with A125T, T282A counted along it
Sequence of human CD33 Y59A (human) (P20138 18-364 Y59A limits assumed): as the sequence (P20138 18-364 T142A limits assumed) above, with Y42A, A125T counted along it
Sequence of human CD33 A168S (human) (P20138 18-364 A168S limits assumed): as the sequence (P20138 18-364 T142A limits assumed) above, with A125T, A151S counted along it
Sequence of human CD33 P72A (human) (P20138 18-364 P72A limits assumed): as the sequence (P20138 18-364 T142A limits assumed) above, with P55A, A125T counted along it
Sequence of human CD33 A306S (human) (P20138 18-364 A306S limits assumed): as the sequence (P20138 18-364 T142A limits assumed) above, with A125T, A289S counted along it
Sequence of human CD33 D70A (human) (P20138 18-364 D70A limits assumed): as the sequence (P20138 18-364 T142A limits assumed) above, with D53A, A125T counted along it
Sequence of human CD33 S342A (human) (P20138 18-364 S342A limits assumed): as the sequence (P20138 18-364 T142A limits assumed) above, with A125T, S325A counted along it
Sequence of human CD33 E337A (human) (P20138 18-364 E337A limits assumed): as the sequence (P20138 18-364 T142A limits assumed) above, with A125T, E320A counted along it
Sequence of human CD33 P184A (human) (P20138 18-364 P184A limits assumed): as the sequence (P20138 18-364 T142A limits assumed) above, with A125T, P167A counted along it
Sequence of human CD33 C276A (human) (P20138 18-364 C276A limits assumed): as the sequence (P20138 18-364 T142A limits assumed) above, with A125T, C259A counted along it

For Refmab #7 (WM53) (antibody), which Mean % WT Binding (human CD33 K283A (human)) is on record?
Its Mean % WT Binding is 117 % WT binding.

What about the Mean % WT Binding (human CD33 H317A (human)) of the same substance?
The Mean % WT Binding was 112 % WT binding.

And the Mean % WT Binding (human CD33 T303A (human))?
Its Mean % WT Binding is 77.1 % WT binding.

And the Mean % WT Binding (human CD33 S323A (human))?
The Mean % WT Binding was 109 % WT binding.

What about the Mean % WT Binding (human CD33 I281A (human)) of the same substance?
Its Mean % WT Binding is 110 % WT binding.

And the Mean % WT Binding (human CD33 E321A (human))?
Its Mean % WT Binding is 109 % WT binding.

And the Mean % WT Binding (human CD33 C276A (human))?
Its Mean % WT Binding is 110 % WT binding.

What about the Mean % WT Binding (human CD33 F345A (human)) of the same substance?
The Mean % WT Binding was 140 % WT binding.

And the Mean % WT Binding (human CD33 P308A (human))?
The Mean % WT Binding was 111 % WT binding.

What about the Mean % WT Binding (human CD33 Y340A (human)) of the same substance?
The Mean % WT Binding was 112 % WT binding.

What about the Mean % WT Binding (human CD33 T331A (human)) of the same substance?
The Mean % WT Binding was 108 % WT binding.

And the Mean % WT Binding (human CD33 D335A (human))?
The Mean % WT Binding was 106 % WT binding.

What about the Mean % WT Binding (human CD33 H300A (human)) of the same substance?
The Mean % WT Binding was 106 % WT binding.

And the Mean % WT Binding (human CD33 K312A (human))?
Its Mean % WT Binding is 101 % WT binding.

What about the Mean % WT Binding (human CD33 S305A (human)) of the same substance?
Its Mean % WT Binding is 106 % WT binding.

What about the Mean % WT Binding (human CD33 C274A (human)) of the same substance?
The Mean % WT Binding was 102 % WT binding.

What about the Mean % WT Binding (human CD33 E336A (human)) of the same substance?
The Mean % WT Binding was 98.4 % WT binding.

And the Mean % WT Binding (human CD33 S342A (human))?
The Mean % WT Binding was 95.2 % WT binding.

What about the Mean % WT Binding (human CD33 D298A (human)) of the same substance?
The Mean % WT Binding was 86.5 % WT binding.

And the Mean % WT Binding (human CD33 T299A (human))?
The Mean % WT Binding was 109 % WT binding.

What about the Mean % WT Binding (human CD33 M334A (human)) of the same substance?
The Mean % WT Binding was 93.9 % WT binding.

What about the Mean % WT Binding (human CD33 H339A (human)) of the same substance?
The Mean % WT Binding was 133 % WT binding.

What about the Mean % WT Binding (human CD33 S324A (human)) of the same substance?
The Mean % WT Binding was 99.2 % WT binding.

What about the Mean % WT Binding (human CD33 E337A (human)) of the same substance?
Its Mean % WT Binding is 102 % WT binding.

What about the Mean % WT Binding (human CD33 T322A (human)) of the same substance?
The Mean % WT Binding was 102 % WT binding.

And the Mean % WT Binding (human CD33 H310A (human))?
Its Mean % WT Binding is 90.4 % WT binding.

What about the Mean % WT Binding (human CD33 A306S (human)) of the same substance?
The Mean % WT Binding was 100 % WT binding.

And the Mean % WT Binding (human CD33 G318A (human))?
Its Mean % WT Binding is 128 % WT binding.

And the Mean % WT Binding (human CD33 K315A (human))?
Its Mean % WT Binding is 112 % WT binding.

What about the Mean % WT Binding (human CD33 S164A (human)) of the same substance?
The Mean % WT Binding was 123 % WT binding.

And the Mean % WT Binding (human CD33 D70A (human))?
Its Mean % WT Binding is 81.2 % WT binding.

What about the Mean % WT Binding (human CD33 G156A (human)) of the same substance?
Its Mean % WT Binding is 112 % WT binding.

And the Mean % WT Binding (human CD33 P184A (human))?
The Mean % WT Binding was 106 % WT binding.

What about the Mean % WT Binding (human CD33 T173A (human)) of the same substance?
Its Mean % WT Binding is 103 % WT binding.

And the Mean % WT Binding (human CD33 P72A (human))?
The Mean % WT Binding was 114 % WT binding.

And the Mean % WT Binding (human CD33 T142A (human))?
The Mean % WT Binding was 113 % WT binding.

What about the Mean % WT Binding (human CD33 S158A (human)) of the same substance?
The Mean % WT Binding was 113 % WT binding.

And the Mean % WT Binding (human CD33 S178A (human))?
Its Mean % WT Binding is 106 % WT binding.

And the Mean % WT Binding (human CD33 A168S (human))?
The Mean % WT Binding was 117 % WT binding.

What about the Mean % WT Binding (human CD33 Y59A (human)) of the same substance?
The Mean % WT Binding was 127 % WT binding.

What about the Mean % WT Binding (human CD33 R110A (human)) of the same substance?
The Mean % WT Binding was 95.9 % WT binding.

And the Mean % WT Binding (human CD33 E84A (human))?
The Mean % WT Binding was 109 % WT binding.

What about the Mean % WT Binding (human CD33 V82A (human)) of the same substance?
The Mean % WT Binding was 108 % WT binding.

And the Mean % WT Binding (human CD33 S97A (human))?
Its Mean % WT Binding is 128 % WT binding.

And the Mean % WT Binding (human CD33 D95A (human))?
The Mean % WT Binding was 104 % WT binding.
